From article PMC2646873 (Biochemistry, 2008)

Molecular target: the molecule itself
Assay: crystal structure

B1: CysM (Rv1336) (enzyme)
chain: MTRYDSLLQALGNTPLVGLQRLSPRWDDGRDGPHVRLWAKLEDRNPTGSIKDRPAVRMIEQAEADGLLRPGATILEPTSGNTGISLAMAARLKGYRLICVMPENTSVERRQLLELYGAQIIFSAAEGGSNTAVATAKELAATNPSWVMLYQYGNPANTDSHYCGTGPELLADLPEITHFVAGLGTTGTLMGTGRFLREHVANVKIVAAEPRYGEGVYALRNMDEGFVPELYDPEILTARYSVGAVDAVRRTRELVHTEGIFAGISTGAVLHAALGVGAGALAAGERADIALVVADAGWKYLSTGAYAGSLDDAETALEGQLWA
stoichiometry N: 2
